Common to all, as to test: cell-based or functional assay
Test [1] concerns the target HIV-1 93IN905 envelope glycoprotein (Env) on pseudovirus (HIV-1).
For test [2], the target named is HIV-1 94KE105 envelope glycoprotein (Env) (HIV-1).
The target in test [3] is HIV-1 94UG103 envelope glycoprotein (Env) (HIV-1).
Test [4] has as its target HIV-1 CMU02 envelope glycoprotein (Env) on pseudovirus (HIV-1).
Test [5] addresses HIV-1 Env of isolate MGRM-AE-001 (HIV-1).
The target in test [6] is HIV-1 Env of isolate MGRM-AE-002 (HIV-1).
Test [7] concerns the target HIV-1 Env of isolate MGRM-D-005 (clade D) (HIV-1).
The target of test [8] is HIV-1 Env of isolate MGRM-G-014 (clade G pseudovirus) (HIV-1).
Test [9] has as its target HIV-1 Env of pseudovirus APV_6, clade B (HIV-1).
Test [10] addresses HIV-1 Env of pseudovirus MGRM-Chronic-B-008, clade B (HIV-1).
For test [11], the target named is HIV-1 LAVIC_18 Env (HIV-1).
The target of test [12] is HIV-1 LAVI_C22 Env (HIV-1).
Test [13] addresses HIV-1 MGRM-F1-012 Env (pseudovirus) (HIV-1).
In test [14] the target is HIV-1 Env of isolate 92UG114 (HIV-1).
For test [15], the target named is HIV-1 Env of isolate MGRM-G-001 (subtype G) (HIV-1).
Test [16] concerns the target HIV-1 Env of isolate MGRM-G-009 (subtype G) (HIV-1).
Test [17] addresses HIV-1 Env of isolate 93WR029 (HIV-1).
Test [18] addresses HIV-1 Env of isolate JRCSF (HIV-1) (UniProt P20871).
Test [19] has as its target HIV-1 Env of isolate MGRM-G-025 (subtype G) (HIV-1).
In test [20] the target is HIV-1 Env of isolate MGRM-D-021 (HIV-1).
Test [21] concerns the target HIV-1 Env of isolate 93MW959 (HIV-1).
The target in test [22] is HIV-1 Env of isolate MGRM-Chronic-B-008 (HIV-1).

Sequence of PGT-144 (4970_K22) (antibody) (VH): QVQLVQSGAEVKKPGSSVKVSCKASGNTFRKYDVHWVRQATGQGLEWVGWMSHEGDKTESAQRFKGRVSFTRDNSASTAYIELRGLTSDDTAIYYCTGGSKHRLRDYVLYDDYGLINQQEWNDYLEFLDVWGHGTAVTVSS
Sequence of PGT-144 (4970_K22) (antibody) (VL): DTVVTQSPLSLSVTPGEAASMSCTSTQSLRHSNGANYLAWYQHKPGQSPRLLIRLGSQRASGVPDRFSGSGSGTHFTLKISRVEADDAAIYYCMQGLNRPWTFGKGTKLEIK
Sequence of PGT-141 (4964_G22; 4993_K13) (antibody) (VH): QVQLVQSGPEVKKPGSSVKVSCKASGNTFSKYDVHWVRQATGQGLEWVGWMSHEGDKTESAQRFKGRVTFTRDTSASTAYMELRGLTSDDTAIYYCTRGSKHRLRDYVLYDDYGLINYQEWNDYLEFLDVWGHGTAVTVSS
Sequence of PGT-141 (4964_G22; 4993_K13) (antibody) (VL): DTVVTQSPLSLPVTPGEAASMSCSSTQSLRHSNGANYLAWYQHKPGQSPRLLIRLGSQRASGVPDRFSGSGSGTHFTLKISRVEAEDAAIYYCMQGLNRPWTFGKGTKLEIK
Sequence of PGT-142 (4995_E20) (antibody) (VH): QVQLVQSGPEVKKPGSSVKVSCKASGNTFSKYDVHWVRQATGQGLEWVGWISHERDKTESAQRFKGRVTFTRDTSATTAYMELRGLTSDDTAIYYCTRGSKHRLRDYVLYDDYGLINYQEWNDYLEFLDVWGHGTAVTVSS
Sequence of PGT-143 (4980_N08) (antibody) (VH): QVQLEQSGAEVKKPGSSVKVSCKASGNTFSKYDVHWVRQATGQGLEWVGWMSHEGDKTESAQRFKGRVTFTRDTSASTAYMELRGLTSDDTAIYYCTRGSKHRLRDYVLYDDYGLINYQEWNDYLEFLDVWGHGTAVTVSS
Sequence of PGT-143 (4980_N08) (antibody) (VL): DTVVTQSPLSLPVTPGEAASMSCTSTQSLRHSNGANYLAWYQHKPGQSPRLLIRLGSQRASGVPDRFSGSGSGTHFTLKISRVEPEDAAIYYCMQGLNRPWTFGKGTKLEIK
Sequence of 1443_C16 (PG16) (TCN-116) (antibody) (VH): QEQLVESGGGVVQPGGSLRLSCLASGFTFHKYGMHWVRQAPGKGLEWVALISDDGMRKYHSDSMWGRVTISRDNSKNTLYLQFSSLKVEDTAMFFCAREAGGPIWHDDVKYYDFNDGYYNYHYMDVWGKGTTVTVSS
Sequence of 1443_C16 (PG16) (TCN-116) (antibody) (VL): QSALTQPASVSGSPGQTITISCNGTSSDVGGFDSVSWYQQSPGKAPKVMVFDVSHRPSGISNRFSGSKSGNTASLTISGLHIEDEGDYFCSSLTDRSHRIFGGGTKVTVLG

Usually IC50 stands for the concentration that inhibits the measured activity by half. Read a high IC50 as weaker potency in that assay. Consider 2F5 (antibody), for which the IC90 (pseudovirus neutralization) is more than 50 mg/L in [1] and 12.2 mg/L in test [4]. Moreover, the IC50 (µg/ml), pseudovirus neutralization was more than 50 µg/mL in [2]; 1.92 µg/mL in [3]; 0.29 µg/mL in test [5]; 0.31 µg/mL in [6]; more than 50 µg/mL in test [7]; 9.65 µg/mL in [8]. Also, the IC50 (µg/ml), pseudovirus neutralization is 0.25 µg/mL in test [9], more than 50 µg/mL in [10] and more than 50 µg/mL in [13]. In addition, the half-maximal inhibitory concentration (IC50) in test [11] and in test [12] was more than 50 mg/L throughout.
As to 2G12 (antibody), the IC90 (pseudovirus neutralization) in [1] and in [4] was more than 50 mg/L each time. The IC50 (µg/ml), pseudovirus neutralization was 7.22 µg/mL in test [2]; 48.1 µg/mL in [3]; more than 50 µg/mL in [5]; more than 50 µg/mL in test [6]; 25.7 µg/mL in test [7]; more than 50 µg/mL in test [8]. The IC50 (µg/ml), pseudovirus neutralization in [9] is 1.9 µg/mL; in test [10], 0.55 µg/mL; in [13], 1.81 µg/mL. Besides, the IC50 in test [11] and in test [12] was more than 50 mg/L throughout.
On to 4E10 (antibody), for which the IC90 (pseudovirus neutralization) worked out at 12.8 mg/L in test [1] and 13.4 mg/L in [4]. In addition, the IC50 (µg/ml), pseudovirus neutralization in test [2] was 7.63 µg/mL; in test [3], 4.97 µg/mL; in [5] it was 0.85 µg/mL; in test [6], 0.55 µg/mL; in test [7], 35.2 µg/mL; in test [8], 13.7 µg/mL. In addition, the IC50 (µg/ml), pseudovirus neutralization in [9] was determined as 1.1 µg/mL; in test [10], 16.7 µg/mL; in test [13] it was 0.37 µg/mL. Moreover, the IC50 in test [11] was more than 50 mg/L; in test [12], 2.02 mg/L.
As to 1443_C16 (PG16) (TCN-116) (antibody), the IC90 (pseudovirus neutralization) in test [1] and in [4] was more than 50 mg/L throughout. Moreover, the IC50 (µg/ml), pseudovirus neutralization in test [2] was 6.13 µg/mL; in test [3], 0.04 µg/mL; in test [5] it was 4.33 µg/mL; in test [6], 0.01 µg/mL; in [7], 19.7 µg/mL; in test [8], 6.98 µg/mL. In addition, the IC50 (µg/ml), pseudovirus neutralization is 0.29 µg/mL in [9], 0.73 µg/mL in [10] and 0.003 µg/mL in test [13]. The IC50 in [11] and in test [12] was 0.02 mg/L throughout.
1495_C14 (PGC14) (antibody): the IC50 (µg/ml), pseudovirus neutralization in [2], in test [3], in [5], in test [6], in test [7] and in test [8] was more than 50 µg/mL throughout. In addition, the IC50 (µg/ml), pseudovirus neutralization in test [9] is 23 µg/mL; in test [10] it was more than 50 µg/mL; in test [13], more than 50 µg/mL. Moreover, the IC50 in test [11] was more than 50 mg/L; in test [12] it was 25 mg/L.
As to 1496_C09 (PG9) (TCN-109) (antibody), the IC50 (ug/ml), neutralizing activity in test [1] came out at 0.048 µg/mL. In addition, the IC50 neutralization in test [1] is 0.048 mg/L; in test [3] it was 0.31 mg/L. In test [1], this substance returned an IC80, neutralization of 0.308 mg/L. The substance further came in with an IC90 (pseudovirus neutralization) in test [1] of 1.89 mg/L. Further, the IC90, neutralization in test [1] is 0.981 mg/L. The substance further came in with an IC95, neutralization in [1] of 3.31 mg/L. For the same substance, the IC50 (µg/ml), pseudovirus neutralization is 29.6 µg/mL in [2]; 0.24 µg/mL in test [3]; 2.97 µg/mL in [5]; 0.04 µg/mL in [6]; 0.59 µg/mL in test [7]; 6.32 µg/mL in test [8]. Besides, the IC50 (µg/ml), pseudovirus neutralization in [9] was determined as 0.12 µg/mL; in test [10] it was 6.66 µg/mL; in [13] it was 0.01 µg/mL. Also, the IC50 (µg/mL), pseudovirus neutralization in test [14] stood at 40.6 µg/mL; in [5], 20.6 µg/mL; in test [6], 0.04 µg/mL. Moreover, the neutralization IC50 is 0.166 mg/L in test [15] and 10.7 mg/L in test [16]. The substance further registered an IC50 in test [11] of 0.1 mg/L.
In the case of PGT-121 (antibody), in test [3], the IC50 neutralization worked out at 1.38 mg/L. The IC50 (µg/mL), pseudovirus neutralization in test [17], in [5] and in test [6] was more than 50 µg/mL each time. For the same substance, the Primary Neutralization Index (B cell culture well 4838 L06) in test [18] is 3.2. In addition, the Primary Neutralization Index (B cell culture well 4873 E03) in test [18] worked out at 2.2.
PGT-122 (antibody) yielded an IC50 neutralization in test [3] of 1.46 mg/L. For the same substance, the IC50 (µg/mL), pseudovirus neutralization in test [17], in [5] and in test [6] was more than 50 µg/mL throughout.
Turning to PGT-141 (4964_G22; 4993_K13) (antibody), the figures for the neutralization IC50 in [15], in [16] and in [19] were 0.392 mg/L, 1.89 mg/L and more than 50 mg/L, respectively.
In the same order, the values of PGT-142 (4995_E20) (antibody) are 0.362 mg/L, 2.81 mg/L and more than 50 mg/L.
For the substance PGT-143 (4980_N08) (antibody), the neutralization IC50 in [15] is 0.423 mg/L; in test [16], 2.97 mg/L; in [19] it was more than 50 mg/L.
As for PGT-144 (4970_K22) (antibody), the neutralization IC50 in test [15], in test [16] and in [19] was more than 50 mg/L throughout.
PGV04 (antibody): the IC50 (µg/mL), pseudovirus neutralization in [14] is 0.461 µg/mL; in test [5] it was 0.063 µg/mL; in test [6] it was 0.569 µg/mL; in test [20] it was more than 50 µg/mL. Also, the neutralization IC50 in test [15] was more than 50 mg/L; in test [16] it was 0.043 mg/L; in [19], 1.61 mg/L.
With VRC01 (antibody), the neutralization IC50 in test [21] was determined as 0.053 mg/L; in [18] it was 0.164 mg/L; in [15], 0.0371 mg/L; in [16] it was 0.073 mg/L; in [19], 0.292 mg/L. For the same substance, the IC50 in [22] turned out to be 0.155 mg/L. The substance also yielded an IC50, pseudovirus neutralization in test [20] of 33.4 mg/L.
Take b12 (antibody): the IC90 (pseudovirus neutralization) in test [1] is more than 50 mg/L; in test [4], 34.2 mg/L. The IC50 (µg/ml), pseudovirus neutralization in test [2] is more than 50 µg/mL; in [3] it was 6.92 µg/mL; in test [5], 25.9 µg/mL; in test [6], 17.1 µg/mL; in test [7] it was more than 50 µg/mL; in test [8], more than 50 µg/mL. Moreover, the IC50 (µg/ml), pseudovirus neutralization was more than 50 µg/mL in test [9], 2.82 µg/mL in test [10] and more than 50 µg/mL in [13]. Moreover, the IC50 is more than 50 mg/L in test [11] and 7.64 mg/L in [12].

(Values after US20200024330A1.)
